The values below come from the supplement of paper PMC7877785.

The series can be described thus: self-splicing fitness, log relative to wild type (ln ratio); higher = more splicing; Tetrahymena group I intron in knt gene, E. coli kanamycin selection, DiMSum; sequences stand for … in CUCUCU…GGAGGGAAAAGUUAUCAGGCAUGCACCUGGUAGCUAGUCUUUAAACCAAUAGAUUGCAUCGGUUUAAAAGGCAAGACCGUCAAAUUGCGGGAAAGGGGUCAACAGCCGUUCAGUACCAAGUCUCAGGGGAAACUUUGAGAUGGCCUUGCAAAGGGUAUGGUAAUAAGCUGACGGACAUGGUCCUAACCACGCAGCCAAGUCCUAAGUCAACAGAUCUUCUGUUGAUAUGGAUGCAGUUCACAGACUAAAUGUCGGUCGGGGAAGAUGUAUUCUUCUCAUAAGAUAUAGUCGGACCUCUCCUUAAUGGGAGCUAGCGGAUGAAGUGAUGCAACACUGGAGCCGCUGGGAACUAAUUUGUAUGCGAAAGUAUAUUGAUUAGUUUUGGAGUACUCGUGGUCG
In short, it runs like this:
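The eight P1ex-region nucleotides of an intron in the knt kanamycin-resistance gene on pET-22b(+) were all randomised and the library put into E. coli BL21(DE3). Six replicate transformations were grown overnight at 37°C or 30°C on LB agar with or without 25 μg/mL kanamycin, together with 100 μg/mL carbenicillin, 50 μM IPTG and 0.2% rhamnose. Colonies were pooled and amplicon-sequenced on an Illumina HiSeq 2500. Fitness from DiMSum is the error-weighted combination of wild-type-normalised replicate fold changes, kanamycin over none.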

± gives the uncertainty stated by the source.

GAUUAGCAAUAUUACGCAUG: the “self-splicing fitness (ln)” value was -0.728 ± 0.14 (30 °C) and -0.334 ± 0.17 (37 °C). Consider GAUUAGCAAUAUUACGCGAC, for which the “self-splicing fitness (ln)” value reads like this: (30 °C) -3.24 ± 0.31; (37 °C) -2.32 ± 0.23. For GAUUAGCAAUAUUACGCGCU, the “self-splicing fitness (ln)” value (37 °C) is -1.92 ± 0.4. Take GAUUAGCAAUAUUACGCUUG: the “self-splicing fitness (ln)” value reads like this: (30 °C) -0.829 ± 0.079; (37 °C) -0.445 ± 0.093. On to GAUUAGCAAUAUUACGGAAC, for which the “self-splicing fitness (ln)” value by setting is: (30 °C) -2.84 ± 0.36; (37 °C) -1.7 ± 0.33. Consider GAUUAGCAAUAUUACGGACG, for which the “self-splicing fitness (ln)” value is, setting by setting: (30 °C) -0.885 ± 0.19; (37 °C) 0.241 ± 0.16. Taken in the same sequence, the figures for GAUUAGCAAUAUUACGGCAA were -0.324 ± 0.15 and -0.0501 ± 0.18. As for GAUUAGCAAUAUUACGGCGC, the “self-splicing fitness (ln)” value reads like this: (30 °C) 0.24 ± 0.072; (37 °C) 0.233 ± 0.084.

GAUUAGCAAUAUUACGGCUA: the “self-splicing fitness (ln)” value by setting is: (30 °C) -0.867 ± 0.099; (37 °C) -0.414 ± 0.1. As to GAUUAGCAAUAUUACGGGCU, the “self-splicing fitness (ln)” value runs as follows: (30 °C) -2.8 ± 0.15; (37 °C) -1.28 ± 0.12. Turning to GAUUAGCAAUAUUACGGUGA, the “self-splicing fitness (ln)” value was -1.31 ± 0.11 (30 °C) and -1.24 ± 0.098 (37 °C). For the sequence GAUUAGCAAUAUUACGGUUA, the “self-splicing fitness (ln)” value is -0.842 ± 0.14 (30 °C) and 0.0704 ± 0.15 (37 °C). For the sequence GAUUAGCAAUAUUACGUAAC, the “self-splicing fitness (ln)” value was -1.94 ± 0.17 (30 °C) and 0.224 ± 0.14 (37 °C).

Turning to GAUUAGCAAUAUUACGUACC, the “self-splicing fitness (ln)” value is -1.71 ± 0.22 (30 °C) and 0.563 ± 0.21 (37 °C). As to GAUUAGCAAUAUUACGUCUG, the “self-splicing fitness (ln)” value reads like this: (30 °C) -2.47 ± 0.23; (37 °C) -1.19 ± 0.16. Turning to GAUUAGCAAUAUUACGUGAA, the “self-splicing fitness (ln)” value (30 °C) was -3.07 ± 0.17 and the “self-splicing fitness (ln)” value (37 °C) was -1.48 ± 0.14. Taken in the same sequence, the figures for GAUUAGCAAUAUUACGUGUA were -2.22 ± 0.13 and -1.63 ± 0.14. For the sequence GAUUAGCAAUAUUACGUUAG, the “self-splicing fitness (ln)” value is, setting by setting: (30 °C) -2.09 ± 0.32; (37 °C) -2.4 ± 0.45.

Consider GAUUAGCAAUAUUACGUUGG, for which the “self-splicing fitness (ln)” value was -4.17 ± 0.27 (30 °C) and -2.16 ± 0.18 (37 °C). As for GAUUAGCAAUAUUACGUUUU, the “self-splicing fitness (ln)” value (30 °C) is -3.88 ± 0.28 and the “self-splicing fitness (ln)” value (37 °C) was -1.59 ± 0.16. On to GCAAAGCAAUAUUACGAACG, for which the “self-splicing fitness (ln)” value reads like this: (30 °C) -1.46 ± 0.077; (37 °C) -0.561 ± 0.11. On to GCAAAGCAAUAUUACGAAUG, for which the “self-splicing fitness (ln)” value (30 °C) was -3.4 ± 0.15 and the “self-splicing fitness (ln)” value (37 °C) is -1.77 ± 0.12. Take GCAAAGCAAUAUUACGACAC: the “self-splicing fitness (ln)” value is -0.783 ± 0.099 (30 °C) and -0.461 ± 0.13 (37 °C). In the case of GCAAAGCAAUAUUACGAGGA, the “self-splicing fitness (ln)” value is, setting by setting: (30 °C) -2.49 ± 0.13; (37 °C) -1.83 ± 0.14. On to GCAAAGCAAUAUUACGAUGU, for which the “self-splicing fitness (ln)” value is -2.89 ± 0.15 (30 °C) and -1.93 ± 0.17 (37 °C).

Turning to GCAAAGCAAUAUUACGCCAG, the “self-splicing fitness (ln)” value (30 °C) is -2.38 ± 0.15 and the “self-splicing fitness (ln)” value (37 °C) is -3.19 ± 0.29. As for GCAAAGCAAUAUUACGCCUC, the “self-splicing fitness (ln)” value runs as follows: (30 °C) -2.69 ± 0.12; (37 °C) -1.86 ± 0.16. With GCAAAGCAAUAUUACGCGCA, the “self-splicing fitness (ln)” value (30 °C) was -0.918 ± 0.096 and the “self-splicing fitness (ln)” value (37 °C) was -0.0967 ± 0.092. For GCAAAGCAAUAUUACGGAAC, the “self-splicing fitness (ln)” value was -1.63 ± 0.18 (30 °C) and -0.635 ± 0.17 (37 °C).

For GCAAAGCAAUAUUACGGCGA, the “self-splicing fitness (ln)” value is -0.683 ± 0.067 (30 °C) and -0.115 ± 0.084 (37 °C). Turning to GCAAAGCAAUAUUACGGGAU, the “self-splicing fitness (ln)” value is, setting by setting: (30 °C) -1.93 ± 0.067; (37 °C) -0.98 ± 0.097. The like results for GCAAAGCAAUAUUACGGGGC were, in that order, -4.05 ± 0.34 and -3.13 ± 0.31. GCAAAGCAAUAUUACGGGUG: the “self-splicing fitness (ln)” value (30 °C) is -1.23 ± 0.047 and the “self-splicing fitness (ln)” value (37 °C) is -1.23 ± 0.057. On to GCAAAGCAAUAUUACGGUCA, for which the “self-splicing fitness (ln)” value reads like this: (30 °C) -1.12 ± 0.083; (37 °C) -0.197 ± 0.087. For GCAAAGCAAUAUUACGUACA, the “self-splicing fitness (ln)” value by setting is: (30 °C) -1.31 ± 0.11; (37 °C) -0.858 ± 0.13. Take GCAAAGCAAUAUUACGUGAG: the “self-splicing fitness (ln)” value reads like this: (30 °C) -1.11 ± 0.046; (37 °C) -0.539 ± 0.067. Regarding GCAAAGCAAUAUUACGUUAG, the “self-splicing fitness (ln)” value runs as follows: (30 °C) -3.02 ± 0.13; (37 °C) -1.82 ± 0.14. For GCACAGCAAUAUUACGAAAA, the “self-splicing fitness (ln)” value is, setting by setting: (30 °C) -1.7 ± 0.1; (37 °C) -1.09 ± 0.12.
